The values below come from publication PMC8939769.

In assay [1] the target is SARS-CoV-2 S trimer (S2P ectodomain protein) (SARS-CoV-2) (UniProt P0DTC2).
The target is the same in assay [2]. Nature of the assay: not stated; binding kinetics (ka, kd, KD) on the SARS-CoV-2 S trimer (S2P ectodomain protein); representative of at least two independent assays; assay details in the Supplementary materials.

Regarding “AZD7442 (combination of AZD8895 and AZD1061)”, the neutralization of the USA-WA1/2020 strain of SARS-CoV-2 in vitro, IC50 in assay [1] stood at 10 ng/mL. The substance further gave a Kd in assay [2] of 0.0137 nM.

One may read the Kd as a measure of binding affinity in units of concentration.
